B1: 3P1D10.2C3 (antibody, mouse IgG1, V domains shown)
VH: QVQLQQSGAELARPGASVKLSCRASGYTFTSSWTQWVKQRPGQGLEWIGAIYPGDGDTRYTQKFKGKATLTADKSSSTAYMQLSSLASEDSAVYYCARHNSYGMDYWGQGTSVTVSS
VL: DIVMTQSPSSLTVTAGEKVTMSCKSSQSLLNSGNQKNYLTWYQQKPGQPPKLLIYWASTRESGVPDRFTGSGSGTDFTLTINSVQAEDLAVYYCQNDYSYPLFTFGSGTKLEIR
notes: murine IgG1
B2: 3P1E11.3B7 (antibody, mouse IgG1, V domains shown)
VH: QVQLQQSGAELARPGASVKLSCRASGYTFTSSWTQWVKQRPGQGLEWIGAIYPGDGDTRYTQKFKGKATLTADKSSSTAYMQLSSLASEDSAVYYCARHNSYGMDYWGQGTSVTVSS
VL: DIVMTQSPSSLTVTAGEKVTMSCKSSQSLLNSGNQKSYLTWYQQKPGQPPKLLIYWASTRESGVPDRFTGSGSGTDFTLTINSVQAEDLAVYYCQNDYSYPLFTFGSGTKLEIR
notes: murine IgG1
B3: 35-E04 (Li03) Fab (Fab, V domains shown)
VH: EVQLLESGGGLVQPGGSLRLSCAASGFTFSQYPMEWVRQAPGKGLEWVSGIYPSGGSTVYADSVKGRFTISRDNSKNTLYLQMNSLRAEDTAVYYCARAGQWLGDFDYWGQGTLVTVSS
VL: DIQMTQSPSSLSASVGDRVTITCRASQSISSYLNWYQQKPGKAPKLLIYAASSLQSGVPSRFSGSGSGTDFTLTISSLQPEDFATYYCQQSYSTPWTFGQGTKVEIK
notes: human, kappa; also called Dli03
B4: 28-D02 (Li10) Fab (Fab, V domains shown)
VH: EVQLLESGGGLVQPGGSLRLSCAASGFTFSTYPMVWVRQAPGKGLEWVSWIGPSGGVTAYADSVKGRFTISRDNSKNTLYLQMNSLRAEDTAVYYCARPYSSGWWDFDLWGRGTLVTVSS
VL: DIQMTQSPSSMSASVGDTVTITCRASQGIGNWLAWYQQKPGKAPTLLIYAASSLESGVPSRFTGSGSSSGIDFTLTISDLHPEDLATYYCQQAQTFPLTFGGGTRVDLK
notes: human, kappa; also called Dli10

Legend:
[1] = biological target: T1, full-length human Sp35 with an N-terminal HA tag (lysate of transfected COS-1 cells) (human, UniProt Q96FE5 40-620); test: IP
T1 construct: used here for all IP columns headed huSp35 / hLINGO-1; also called huSp35 (IP); hLINGO-1 (IP)
T1 sequence: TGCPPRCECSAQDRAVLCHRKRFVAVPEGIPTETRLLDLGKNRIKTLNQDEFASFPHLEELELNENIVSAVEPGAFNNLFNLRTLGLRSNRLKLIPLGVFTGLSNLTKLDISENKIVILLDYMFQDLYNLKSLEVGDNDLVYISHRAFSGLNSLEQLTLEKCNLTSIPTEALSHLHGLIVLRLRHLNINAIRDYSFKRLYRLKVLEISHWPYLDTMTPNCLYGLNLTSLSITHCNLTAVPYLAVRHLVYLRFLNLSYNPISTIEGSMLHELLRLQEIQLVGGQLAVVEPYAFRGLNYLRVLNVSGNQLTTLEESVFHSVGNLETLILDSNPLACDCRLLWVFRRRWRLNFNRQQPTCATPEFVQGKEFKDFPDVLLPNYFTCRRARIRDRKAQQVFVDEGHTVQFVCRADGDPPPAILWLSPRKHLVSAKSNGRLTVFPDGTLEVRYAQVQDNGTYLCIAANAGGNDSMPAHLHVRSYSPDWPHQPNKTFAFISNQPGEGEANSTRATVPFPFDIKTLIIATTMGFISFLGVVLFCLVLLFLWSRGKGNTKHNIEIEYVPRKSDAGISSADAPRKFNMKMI
Procedure: To perform the immunoprecipitation, COS-1 cells expressing Sp35, fused to a hemaglutinin (HA) tag on the N-terminus, were produced by transiently transfecting COS-1 cells with a DNA construct which expresses the full-length Sp35 protein with an HA tag. Cells were harvested 48 hr after transfection and were lysed in 1 ml lysis buffer (50 mM HEPES, pH 7.5, 150 mM NaCl, 1.5 mM MgCl₂, 1 mM EGTA, 1% Triton X-100 and 10% glycerol) for 30 min at 4° C. After centrifugation at 14,000×g for 15 min, the supernatants were incubated with ProteinA/G-Sepharose beads (Santa Cruz) at 4° C. for 1 hr, and then incubated at 4° C. for 1 hr with either the 1A7 or the 2F3 anti-Sp35 murine monoclonal antibodies. The beads were washed 3 times with lysis buffer, boiled in Laemmli sample buffer, subjected to 4-20% SDS-PAGE, and analyzed by Western blotting using an antibody which recognizes the HA tag. As shown on the SDS-PAGE gel, monoclonal antibodies 1A7 and 2F3, immunoprecipitated human and murine Sp35 (FIG. 1). […] Similarly, monoclonal antibodies 1G7, 2B10, 2F3, 3P4C2.2D2, 3P4C8.2G9, Li01, Li03, Li05, Li06, Li07, Li08, Li11, Li12, 7P1D5.1G9 and 3B5.2 immunoprecipitate human or mouse or human and mouse Sp35 (See Table 3B and 3C). Additionally, Li08 immunoprecipitates AP-Sp35 and monoclonal antibodies 1B6.4 and 3E3.1 immunoprecipitate endogenous Sp35 (See Table 3B).

[2] = biological target: T2, human Sp35 protein (ELISA, Western, KD; form not stated) (human, UniProt Q96FE5 40-538, limits assumed); test: ELISA
T2 construct: also called huSp35; hLINGO-1
T2 sequence: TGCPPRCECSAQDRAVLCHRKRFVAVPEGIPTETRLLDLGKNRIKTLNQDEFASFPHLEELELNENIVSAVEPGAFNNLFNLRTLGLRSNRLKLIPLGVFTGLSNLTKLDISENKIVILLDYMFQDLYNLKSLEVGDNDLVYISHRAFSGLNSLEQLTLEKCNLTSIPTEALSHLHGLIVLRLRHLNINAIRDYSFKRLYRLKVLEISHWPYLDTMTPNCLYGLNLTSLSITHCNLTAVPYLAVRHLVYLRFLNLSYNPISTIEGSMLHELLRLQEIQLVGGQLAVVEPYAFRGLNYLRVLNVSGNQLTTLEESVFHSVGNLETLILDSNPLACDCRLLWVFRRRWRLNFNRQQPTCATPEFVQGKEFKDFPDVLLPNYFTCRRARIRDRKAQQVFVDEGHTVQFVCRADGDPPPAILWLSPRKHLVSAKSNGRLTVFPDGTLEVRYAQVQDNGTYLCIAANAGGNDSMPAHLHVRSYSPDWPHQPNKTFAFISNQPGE

[3] = biological target: T3, Sp35-Fc fusion protein (human Sp35 residues 1-532 fused to hinge and Fc of human IgG1) (human, UniProt Q96FE5 40-538); test: ELISA
T3 construct: also called LINGO-1-Ig; LINGO-1-Fc; not shown: hinge and Fc region of human IgG1
T3 sequence: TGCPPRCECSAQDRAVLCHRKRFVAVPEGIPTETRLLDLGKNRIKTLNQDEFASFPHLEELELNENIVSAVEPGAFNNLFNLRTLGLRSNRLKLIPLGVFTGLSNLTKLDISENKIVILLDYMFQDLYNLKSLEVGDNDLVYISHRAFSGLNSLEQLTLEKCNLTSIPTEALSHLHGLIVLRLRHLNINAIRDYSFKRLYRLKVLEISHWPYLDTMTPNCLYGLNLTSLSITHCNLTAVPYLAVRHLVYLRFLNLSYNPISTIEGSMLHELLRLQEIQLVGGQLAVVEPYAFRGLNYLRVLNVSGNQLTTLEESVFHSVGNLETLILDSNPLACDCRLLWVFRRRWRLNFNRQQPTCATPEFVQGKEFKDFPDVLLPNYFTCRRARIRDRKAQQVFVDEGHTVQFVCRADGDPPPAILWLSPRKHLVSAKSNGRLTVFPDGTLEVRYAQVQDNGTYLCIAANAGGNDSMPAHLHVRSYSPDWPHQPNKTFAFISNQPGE
Procedure: (§1) In order to determine which regions of the Sp35 polypeptide were bound by the various hybridoma- and phage display-derived monoclonal antibodies produced in Example 2, an ELISA assay was performed using a panel of truncated Sp35 polypeptides, each fused to the hinge and Fc regions of IgG1 by the methods described in Example 1. […] Ovalbumin and BSA were used as controls. […] The affinity of these latter antibodies for mouse and rat Sp35 was restored to the level seen using human Sp35 when amino acid 419 of the mouse or rat Sp35 is changed from histidine (H) to arginine (R). Arginine is the amino acid at position 419 in human Sp35. […] AP substrate was then developed by 10 mg/ml 4 NPP in 0.1 M Glycine, 1 mM MgCl₂, 1 mM ZnCl₂, pH 10.5, and read at O.D. 405.

[4] = biological target: T4, Sp35 fragment 34-532 (ELISA) (human, UniProt Q96FE5 40-538); test: ELISA
T4 sequence: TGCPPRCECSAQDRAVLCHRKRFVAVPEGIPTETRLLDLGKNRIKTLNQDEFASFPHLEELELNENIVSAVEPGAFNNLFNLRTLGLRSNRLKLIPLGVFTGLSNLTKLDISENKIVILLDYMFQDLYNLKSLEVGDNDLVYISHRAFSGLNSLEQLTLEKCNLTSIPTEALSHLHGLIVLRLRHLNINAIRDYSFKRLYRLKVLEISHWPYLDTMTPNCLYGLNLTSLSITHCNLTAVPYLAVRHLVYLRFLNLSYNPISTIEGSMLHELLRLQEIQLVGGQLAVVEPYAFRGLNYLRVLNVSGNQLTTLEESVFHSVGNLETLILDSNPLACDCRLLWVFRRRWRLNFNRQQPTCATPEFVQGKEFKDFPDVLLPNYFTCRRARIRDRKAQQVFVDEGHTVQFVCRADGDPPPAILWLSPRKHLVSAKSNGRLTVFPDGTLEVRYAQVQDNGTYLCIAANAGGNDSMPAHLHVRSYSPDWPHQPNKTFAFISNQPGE
Procedure: as §1

Binder | binding result [1] | binding result [2] | binding result [3] | binding result [4]
B1 | binds | binds | binds | binds
B2 | binds | binds | binds | binds
B3 | binds | binds | – | –
B4 | – | binds | – | –

Source: patent publication US20090252748A1 (Biogen, published 2009)
